Experimental data: paper PMC8000399

Biological target: adzuki bean (Vigna angularis) β-vignin protein (Vigna angularis (adzuki bean))
Assay: SEC; gel molecular sieving on a Sephadex G-200 column (50 cm x 2.5 cm) under native condition, 0.58 mL/min, room temperature; calibrated with standard proteins; apparent molecular size compared with the subunits' Mr from SDS-PAGE

adzuki bean (Vigna angularis) β-vignin protein (natural protein)
stoichiometry N: 3
